A short description of the data set: soluble on expression in E. coli; label from the status in PepcDB or PDB records.
“MGSDKIHHHHHHMIKFGEAVLGNEIKAIVNVALGKGELIENTFTNALTRGNCVFANLRPNLIVKPLTLVVPRHNIESEIQDELFQGVIQYAVAKAVADLDLDEDLKVVVSVNVPEVPITNLNKRKLFQYFYASAKLAINRALNEYPSKEKVKKEKYRALHPLVGFRDVRLEYPPYLQIALDVPTMENLEFLLQTIPNSDHIILEAGTPLIKKFGLEVIEIMREYFDGFIVADLKTLDTGRVEVRLAFEATANAVAISGVAPKSTIIKAIHECQKCGLISYLDMMNVSEPQKLYDSLKLKPDVVILHRGIDEETFGIKKEWKFKENCLLAIAGGVGVENVEELLKEYQILIVGRAITKSKDPGRVIRMFINKMGYDIDTYRLYFDEDEDIGEEL”: the “soluble on expression in E. coli” value is on record as “not soluble”. Take “MILQEAKIRAKELEIGAKSKYENETSKVIKEYESYLIKLEKQEAKNQQRLERETQQLEEERRRINHKQASLSGMIEELEKLKGDYRSKLTESLEILSRVAGLTQEEAKELALAKATEESRAQIAQIVRKYESEAKEEGRKRANYILAQATTRFAGEFAAERLINVVNLPNDELKGRIIGKEGRNIKTLEMLSGVDVIIDDTPGAIVLSSFNLYRRAIATRTIEALVEDGRIQPARIEEVYKKVEQEFEEKVLEEGEGIVLDMELGYVHPELKKLIGRLKYRASYGQNALGHSLEVANLAGVIAGELGGDVKLAKRAGLLHDIGKALTHDFGGSHVDLGAEVCSRYKEHPVVINAIFAHHGHEEAKSIESAAVCAADALSAARPGARREVLESFLKRVQEIEKIAMEKLGVRQAYAINAGREVRVIVNADLINDEESVLLAQEIAKEIETKVQYPGEIKVSVIREVRAVEFAK”: the “soluble on expression in E. coli” value is recorded as “not soluble”. As for “MEFTAEQLSQYNGTDESKPIYVAIKGRVFDVTTGKSFYGSGGDYSMFAGKDASRALGKMSKNEEDVSPSLEGLTEKEINTLNDWETKFEAKYPVVGRVVS”, the entry is “soluble”; as for “MAHHHHHHMEDVGGKANCQIEPERKEAVIDTSNWPLLLKNYDKLNVRSSHFTPLPMGNSPYSRNLEEYLKYGIINLDKPSNPSSHEVVSWIRKILRCEKTGHSGTLDPKVTGVLLVCLNRATRLVKSQQESGKEYVCVCKFHSKPKSLEEVKLVLNNFHGAIFQRPPLICAVKRQLRVRTIYDSKLLDFDDANNVCVFWVKCQAGTYIRTLCEHIGLLLGVGAHMQELRRVKSGNMTEYDNMCTLHDILDAQHVYDTTGDESYLRKIITPLEKLLINFPRIVIKDSAVNAICYGAKLTIPGVLRFDNNIDVNSEVVLMTTKGEAVALAIAQMTSSVIATVDHGVVSLTKRVIMDRDTYDVKWGYGTRSMEKKKLILAGLLDKYGKPNEKTPLSWIKSEGYVPKLVGDTAIYTLNTDDGNNNEVPENGKNVVGENNNPVGGSSAFNLSEGENKKKKDGEGAEENDNNAGEQSDSGVVKKKRKKN”, “not soluble”. For “AGKTLYGKLWDIHEVARRDDGSSLIYIDRHILHEVTSPQAFEGLRLAGRPLWRVNANIATPDHNVPTTKAERQGSLLSIADTVSRLQVQTLDENCDDFGIFEFKMNDVRQGIVHVIGPEQGATLPGMTVVCGDSHTSTHGAFGALAHGIGTSEVEHVLATQCLVTQKMKN”, the “soluble on expression in E. coli” value is listed as “not soluble”. For the sequence “MGHNMMTTQKWYEHITNVIIGNTANFNSGCPESIDYVDEKKGVPLAAMKYILMYTEAAASHAYLFEHDLKKFKQYAYVAGKLGILQSVDDEDPEPFFFPCDMLNIQDPMFLMLMSDSPQLREFLVRNIDNIANDTEAFVNRYDLNRHMIYNTLLMVEGKQLDRLKQRSEKVLAHPTPSKWLQKRLYDYRFFLAFAEQDAEAMKAALEPLFDKKTARMAAKETLSYFDFYLQPQIVTYAKIASMHGFDLGIDHEIAPRDLTVYDPLPADEYQDIFDFMKQYDLSYPYEYLQDWIDYYTFKTDKLVFGNAKRE”, the “soluble on expression in E. coli” value was “not soluble”. Take “MNNFFKHTLETHTPQSMSKITSYIREDIKNSNIENGIVVVYCPHTTAGITINENADPDVVKDLIYGFEKVYPTNDHKYRHFEGNSHSHLKSSTVGVSQQLILHRGRLILGQWQDVYFCDFDGPRNRTFYVKILEGLEHHHHHH”: the “soluble on expression in E. coli” value is given as “not soluble”. In the case of “MYEGKVGFDFLGFTVRQFPVGKYHSGKSSSGKLLGYKTLITPSKAKLKIHAQKIGKLIDEHKAVPQSDLIAHLNPVIRGWTNYYSCVVSKRIFNQADTTLFSQLKAWAEHRHPNKSSRWSCQKYWQTVGSDNWVFKPHNQKIRLLKHRETRIVRHILEHHHHHH”, the “soluble on expression in E. coli” value is given as “not soluble”.

The values are drawn from the DeepSol protein solubility set.
